Measured values as given in paper PMC2824758.

Biological target: CD81 large external loop (LEL) (UniProt P60033)
Chain of UniProt P60033 (P60033 113-201): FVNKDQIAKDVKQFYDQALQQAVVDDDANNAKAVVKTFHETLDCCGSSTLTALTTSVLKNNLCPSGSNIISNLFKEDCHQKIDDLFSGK

HCV E2 ectodomain (E2e), isolate UKN2b_2.8, genotype 2b (domain or fragment)
inhibition of infection of Huh-7.5 cells by HCVcc (infected foci, HCV core immunofluorescence), cells preincubated with 0.05 to 2 µM HCV E2e; 10% inhibition at 0.05 µM: 90%
